Experimental findings from patent US20010041350A1 are described below.

This assay deals with truncated polypeptides of the in vitro translation of the DNA ligase III cDNA. As to the kind of experiment: pull-down: XRCC1-His incubated with [35S]methionine-labeled in vitro translation product, captured on NTA-agarose beads, eluted with 200 mM imidazole.

For “Histidine-tagged recombinant XRCC1 protein (from UniProt P18887 1-633)”, the percent of translation product recovered with XRCC1-His is under 90%.
